Results reported in publication PMC13013135, “[^99mTc]Tc-PSMA-HSG for PSMA-targeted Hybrid Surgical Guidance: a new addition to the PSMA-I&S/I&T family” (European Journal of Nuclear Medicine and Molecular Imaging, 2025).

Legend:
[1] = system: PSMA expressing LNCaP cells; assay: Dual tracer internalization assay; type: cell-based, human; conditions: 60 min, 37 °C, 0.5 nM tracer, normalized to ([^125I]IBA)KuE
Description: Competitive binding experiments (IC50) were carried out in accordance with an established protocol using PSMA-expressing LNCaP cells and ([^125I]I-BA)KuE as standard radioligand. […] Please see the Supplementary Material for experimental details. […] The supernatant was removed, cells were washed with assay medium, and an acid wash (50 mM NaOAc in saline, pH 4.5) was performed to remove membrane-associated activity. Cells were then lysed using 1N NaOH, and internalized activity was quantified using a γ-counter. […] Tocris Bioscience, Bristol, UK) and normalized to the specific internalization observed for the radioiodinated reference compound in the same experiment. Data represent means ± SD (n=3) from three separate determinations.

PSMA = PSMA (Homo sapiens, UniProt Q04609); assay: Radioguided surgery (RGS) with gamma probe, ex vivo fluorescence microscopy; type: in vivo; set-up: Five patients with a diagnosis of initial (n = 4) or biochemical recurrence of (n = 1) histologically proven prostate cancer; from tissue; host or cells: prostate cancer patients: primary tumour, lymph nodes, resected tissue sections
Chain of PSMA (Q04609 whole entry): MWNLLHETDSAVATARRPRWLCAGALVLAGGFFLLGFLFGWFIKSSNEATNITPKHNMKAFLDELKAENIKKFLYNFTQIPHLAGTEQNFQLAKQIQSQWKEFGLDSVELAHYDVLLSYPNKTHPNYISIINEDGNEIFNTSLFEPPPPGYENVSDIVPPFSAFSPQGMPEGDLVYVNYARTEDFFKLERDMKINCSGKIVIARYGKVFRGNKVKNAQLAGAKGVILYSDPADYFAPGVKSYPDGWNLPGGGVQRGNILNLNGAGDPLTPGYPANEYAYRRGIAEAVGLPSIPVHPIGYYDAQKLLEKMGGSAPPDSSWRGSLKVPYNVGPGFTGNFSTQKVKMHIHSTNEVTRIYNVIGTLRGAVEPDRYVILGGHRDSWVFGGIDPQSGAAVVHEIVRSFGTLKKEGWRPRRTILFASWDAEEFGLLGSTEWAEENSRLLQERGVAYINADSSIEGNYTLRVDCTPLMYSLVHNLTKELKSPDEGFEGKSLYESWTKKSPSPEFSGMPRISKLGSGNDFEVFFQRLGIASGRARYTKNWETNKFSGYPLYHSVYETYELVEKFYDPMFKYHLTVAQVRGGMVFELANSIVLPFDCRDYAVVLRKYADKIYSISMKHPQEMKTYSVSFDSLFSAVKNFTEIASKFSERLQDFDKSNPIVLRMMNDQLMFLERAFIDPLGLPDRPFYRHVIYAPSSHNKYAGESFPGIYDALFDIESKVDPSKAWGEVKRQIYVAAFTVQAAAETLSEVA
Description: Radioguided open surgery was performed the day after tracer injection by an experienced urologic surgeon (DW; more than 20 years of surgical experience) in collaboration with a nuclear medicine physician. Using a conventional gamma probe (C-Trak®, SanuC GmbH, Jahnsdorf, Germany), suspicious lymph nodes (defined as spots with signal-to-background ratios ≥ 2) were excised separately followed by pelvic lymph node dissection. […] Fresh frozen tissue sections were prepared using a standard cryosectioning protocol with 10–20 μm sections mounted for fluorescence imaging. These slides were stored on dry ice prior to fluorescence microscopy to preserve tissue integrity. Fluorescence microscopy of patient samples was performed using an Axioscan 7 slide scanner (Zeiss) equipped with a Colibri 7 LED light source and a 20×/0.8 NA Plan-Apochromat objective. Cy5 fluorescence was acquired using a filter set with excitation 640/30 nm, dichroic mirror 660 nm, and emission 690/50 nm. Image acquisition and analysis were performed using ZEN Blue 3.5 software (Zeiss). For immunohistochemical analysis, adjacent formalin-fixed, paraffin-embedded tissue sections were cut at 2 μm thickness and stained for PSMA (clone EP192 BioSB, BIOO Scientific) using a Ventana Benchmark automated platform (Bio SB, Santa Barbara, CA, USA). Conventional hematoxylin and eosin (H&E) and immunohistochemical (for PSMA) staining was performed on corresponding tissue sections to enable morphologic correlation and verification of target expression, respectively. For further information on immunhistochemical staining please refer to the Supplementary Material.

in vivo = conditions: mouse, in vivo
Description: The biodistribution of [^99mTc]Tc-PSMA-HSG and of the reference compound [^99mTc]Tc-PSMA-I&S was investigated in LNCaP xenograft bearing NSG mice (see supplemental information).
Mice were injected intravenously with the respective ^99mTc-labeled tracer (24–34 MBq (fixed peptide dose of 1 nmol/mouse) or 3.7–7.6 MBq (fixed peptide doses of 0.1 nmol/mouse), respectively) and were sacrificed at 2 h (1 nmol-cohort) or 6 h p.i. (0.1 nmol-cohort), respectively. The organs of interest were dissected, and the activity concentration in weighed tissue samples was quantified using an AMG Automatic Gamma Counter (Hidex, Turku, Finland). Biodistribution data are given in %iD/g and represent means ± SD (groups of n = 5 animals). Statistical analysis (Multiple unpaired t-test) of biodistribution data and tumor/organ ratios was performed using GraphPad Prism (Boston, USA).
To induce LNCaP tumor growth, a suspension of LNCaP cells (approx. 5 x 10^6 cells/mouse) in 200 μl of a 1:1 mixture of serum-free DMEM and Matrigel (BD Biosciences) was injected subcutaneously into the right shoulder of male NOD scid gamma (NSG) mice (6-8 weeks, in-house breeding, Dpt. of Oncology, University of Lausanne). After approximately 9 weeks, tumor size reached 4-8 mm in diameter and the mice were used for the in vivo studies.

[2] = exploratory cohort, five patients

With `C[N+]1=C(/C=C/C=C/C=C2/N(CCCCCC(=O)NCCCC[C@@H](NC(=O)[C@@H](CO)NC(=O)[C@@H](CO)NC(=O)[C@@H](CO)NC(=O)CS)C(=O)N[C@H](Cc3ccc(O)cc3)C(=O)N[C@H](Cc3ccc4ccccc4c3)C(=O)N[C@H](CCCCNC(=O)CCCCCCC(=O)NCCCC[C@H](NC(=O)N[C@@H](CCC(=O)O)C(=O)O)C(=O)O)C(=O)O)c3ccc(S(=O)(=O)[O-])cc3C2(C)C)C(C)(C)c2cc(S(=O)(=O)O)ccc21` [[^99mTc]Tc-PSMA-HSG, metal not drawn] the “internalization [% of reference]” value [1] was 14 ± 1 % of reference, the “RGS, ex vivo activity, left external iliac LN” value (PSMA; Patient #1) was 190 cps and the “RGS, ex vivo activity, right external iliac LN” value (PSMA; Patient #1) was 230 cps. The “RGS, in vivo activity measurements” value (PSMA; Patient #1, 53 µg) was “intraoperative detection feasible; after resection no further tracer accumulation detected”, the “RGS, in and ex vivo activity measurements” value (PSMA; Patient #2, 53 µg) was “In and ex vivo activity measurements: No positive LN” and the “RGS, in and ex vivo activity measurements” value (PSMA; Patient #3, 53 µg) was “In and ex vivo activity measurements: No positive LN”. For the same molecule, the “RGS, ex vivo activity, right iliac LN (2 adjacent LNs)” value (PSMA; Patient #4) was 20 cps, the “RGS, ex vivo activity, right iliac LN (first listed)” value (PSMA; Patient #4) was 50 cps and the “RGS, ex vivo activity, right iliac LN (last listed)” value (PSMA; Patient #4) was 15 cps. For the same molecule, the “RGS, in vivo activity measurements” value (PSMA; Patient #4, 350 µg) was “No detection of tracer-positive lesions”, the “specificity of uptake in resected lymph nodes, fluorescence microscopy” value (PSMA; Patient #4, 350 µg) was “highly PSMA-specific” and the “RGS, in and ex vivo activity measurements” value (PSMA; Patient #5, 250 µg) was “In and ex vivo activity measurements: No positive LN”. For the same molecule, the “NPV of RGS” value (PSMA; [2]) was 100%, the “PPV of RGS” value (PSMA; [2]) was 100% and the “sensitivity of RGS (abstract: selectivity)” value (PSMA; [2]) was 100%. The “specificity of RGS” value (PSMA; [2]) was 100%, the “lymph node metastases in tracer-avid lesions, intraoperative gamma detection” value (PSMA; in vivo) was 6/6 and the “true negative lymph nodes identified by RGS” value (PSMA; patient sub-cohort) was 53/53. For the same molecule, the “true positive lymph nodes identified by RGS” value (PSMA; patient sub-cohort) was 4/4, the tissue uptake at 6 h (in vivo; male, NOD scid gamma (NSG), iv, 0.1 nmol/mouse, total radioactivity, biodistribution, liver) was 2.5 ± 0.4 %ID/g and the tissue uptake at 6 h (in vivo; male, NOD scid gamma (NSG), iv, 0.1 nmol/mouse, total radioactivity, biodistribution, lung) was 2.5 ± 0.5 %ID/g. For the same molecule, the tissue uptake at 6 h (in vivo; male, NOD scid gamma (NSG), iv, 0.1 nmol/mouse, total radioactivity, biodistribution, pancreas) was 0.8 ± 0.3 %ID/g, the tissue uptake at 6 h (in vivo; male, NOD scid gamma (NSG), iv, 0.1 nmol/mouse, total radioactivity, biodistribution, spleen) was 9.7 ± 3.8 %ID/g and the tissue uptake at 6 h (in vivo; male, NOD scid gamma (NSG), iv, 0.1 nmol/mouse, total radioactivity, biodistribution, stomach) was 1.1 ± 0.2 %ID/g. The tissue uptake at 2 h (in vivo; male, NOD scid gamma (NSG), iv, 1 nmol/mouse, total radioactivity, biodistribution, liver) was 3.3 ± 0.3 %ID/g, the tissue uptake at 2 h (in vivo; male, NOD scid gamma (NSG), iv, 1 nmol/mouse, total radioactivity, biodistribution, lung) was 2.8 ± 0.3 %ID/g and the tissue uptake at 2 h (in vivo; male, NOD scid gamma (NSG), iv, 1 nmol/mouse, total radioactivity, biodistribution, pancreas) was 0.8 ± 0.1 %ID/g. The tissue uptake at 2 h (in vivo; male, NOD scid gamma (NSG), iv, 1 nmol/mouse, total radioactivity, biodistribution, spleen) was 5.2 ± 1.9 %ID/g, the tissue uptake at 2 h (in vivo; male, NOD scid gamma (NSG), iv, 1 nmol/mouse, total radioactivity, biodistribution, stomach) was 1.6 ± 0.1 %ID/g and the tissue to tissue ratio at 6 h (in vivo; male, NSG, iv, 0.1 nmol/mouse, total radioactivity) was 0.12 ± 0.02. For the same molecule, the tissue uptake at 6 h (in vivo; male, NSG, iv, 0.1 nmol/mouse, total radioactivity, biodistribution, LNCaP tumor) was 19.8 ± 6.6 %ID/g, the tissue uptake at 6 h (in vivo; male, NSG, iv, 0.1 nmol/mouse, total radioactivity, biodistribution, blood) was 1.3 ± 0.3 %ID/g and the tissue uptake at 6 h (in vivo; male, NSG, iv, 0.1 nmol/mouse, total radioactivity, biodistribution, heart) was 0.7 ± 0.2 %ID/g. It also gave a tissue uptake at 6 h (in vivo; male, NSG, iv, 0.1 nmol/mouse, total radioactivity, biodistribution, intestines) of 1.3 ± 0.2 %ID/g, a tissue uptake at 6 h (in vivo; male, NSG, iv, 0.1 nmol/mouse, total radioactivity, biodistribution, kidneys) of 148 ± 17 %ID/g and a tissue uptake at 6 h (in vivo; male, NSG, iv, 0.1 nmol/mouse, total radioactivity, biodistribution, muscle) of 0.4 ± 0.06 %ID/g. For the same molecule, the tissue uptake at 6 h (in vivo; male, NSG, iv, 0.1 nmol/mouse, total radioactivity, biodistribution, salivary glands) was 4 ± 1.2 %ID/g, the tissue to tissue ratio at 2 h (in vivo; male, NSG, iv, 1 nmol/mouse, total radioactivity) was 0.2 ± 0.03 and the tissue uptake at 2 h (in vivo; male, NSG, iv, 1 nmol/mouse, total radioactivity, biodistribution, LNCaP tumor) was 12.1 ± 0.9 %ID/g. The tissue uptake at 2 h (in vivo; male, NSG, iv, 1 nmol/mouse, total radioactivity, biodistribution, blood) was 2.4 ± 0.3 %ID/g, the tissue uptake at 2 h (in vivo; male, NSG, iv, 1 nmol/mouse, total radioactivity, biodistribution, heart) was 1.3 ± 0.2 %ID/g and the tissue uptake at 2 h (in vivo; male, NSG, iv, 1 nmol/mouse, total radioactivity, biodistribution, intestines) was 1 ± 0.1 %ID/g. For the same molecule, the tissue uptake at 2 h (in vivo; male, NSG, iv, 1 nmol/mouse, total radioactivity, biodistribution, kidneys) was 61.7 ± 7.2 %ID/g, the tissue uptake at 2 h (in vivo; male, NSG, iv, 1 nmol/mouse, total radioactivity, biodistribution, muscle) was 0.5 ± 0.04 %ID/g and the tissue uptake at 2 h (in vivo; male, NSG, iv, 1 nmol/mouse, total radioactivity, biodistribution, salivary glands) was 4.2 ± 0.5 %ID/g. It also gave a tissue uptake at 6 h (in vivo; Tumor uptake in mice) of 11.8 ± 1.5 %ID/g.
